Measured values taken from the supplement of paper PMC10567573.

B1: MGC27345 (parent)
chain: KYMPHLCQDSSGEVSCQCQLHPPR

Variants of: B1
Test: protein stability index of a GFP-peptide fusion (GPS, HEK-293T) (PSI 1-6); higher = more stable
Details: c terminus: a fixed tail appended
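Further: lentivirally expressed fusions sorted by FACS into six bins by GFP to DsRed ratio, PSI derived from sequencing read proportions per bin multiplied by bin number.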

Protein stability index, by site and new letter:
V14: G 3.14; K 2.64; Q 2.67; P 2.45
S15: D 3.99; N 2.62; Q 1.96; I 1.63
P22: D 4.1; E 3.09; Y 2.45; H 3.14; M 2.51; C 2.47; I 2.03; V 2.17; N 3.16; W 2.05; K 2.43; F 2.41; G 3.29
C7: I 1.79; P 1.77; A 1.47; T 1.53; R 3.06; S 1.47; F 2.21
D9: N 1.98; A 2.73; G 2.56; H 2.38; K 2.43; E 3.09; F 2.47; R 1.89; M 2.15
E13: A 2.3; Y 1.54; P 2.31; N 1.75; H 2.05; K 2.21; F 1.71; T 2.22; R 2.44; M 1.89; V 1.78
L20: K 2.04; M 2.73; E 3.1; T 2.12; V 2.17; I 2.79; A 2.37; P 3.73; C 2.44
C16: N 3.1; W 2.38; L 2.94; S 2.03; E 4.02
P4: Q 1.99; Y 2.15; I 1.49; V 2.81; K 1.58; L 1.7; M 2.54; T 1.98; E 1.79; A 2.26; D 2.18
Y2: E 1.66; W 2.64; G 2.87; M 2.52; A 1.97
G12: M 1.88; D 2.52; I 1.47; P 1.96; H 2.69; L 2.08; R 1.69
S11: G 3.17; I 1.71; F 1.58; T 2.1; P 1.72; R 1.66; A 2.53; V 1.45; K 2.28; C 2.5; Y 1.52
L6: T 2.34; H 2.1; S 2.98; W 1.53; M 1.79; F 1.59
Q8: Y 1.7; R 2.83; L 1.77; F 2.38; T 3.04; C 2.53; M 2.83
H5: N 1.64; F 1.34; S 1.89; Q 2.6; P 2.27; I 1.49
R24: C 3.86; V 3.23; E 4.59; H 4.04
Q17: V 2.44; A 1.66; S 1.33; R 2.35; T 1.81; P 2.21; F 2.21
S10: L 1.57; M 2.39; Y 4.19; K 2.02; W 1.6; G 2.08; V 1.56; H 2.91
K1: Y 1.92; Q 2; H 2.13; M 3.73
C18: F 1.93; W 2.44; K 3.44; S 3.79; L 3.35; I 3.34; M 2.54; T 3.35
M3: R 2.46; A 2.24; W 1.99; K 1.96; P 2.84
P23: E 3.48; G 3.38; K 2.35; Q 2.29
Q19: K 2.07; A 2.45; I 2.15; L 2.12; G 2.81; E 3.08; M 2.13
H21: E 3.34; I 2.75; N 2.31; A 3.18; Q 4.58
